Data: patent publication US20200181597A1, “Composition and Application of Arginine-depleting Agents for Cancer, Obesity, Metabolic Disorders, and Related Complications and Comorbidities” (THE HONG KONG POLYTECHNIC UNIVERSITY, priority 2018, published 2020)

What was measured:
[1] = Arginase specific activity, DAMO colorimetric assay; type: biochemical; details: 37° C., pH 7.4, purified preparation
Text: The arginase activity of the fusion proteins described herein can be substantially the same, lower, or higher than the activity of the arginase polypeptide from which it is derived. One unit of arginase activity is defined as the amount of fusion protein [e.g., BHA (SEQ ID NO; 75), BAH (SEQ ID NO: 76), N-ABD-rhArg (SEQ ID NO: 49), or N-ABD094-rhArg (SEQ ID NO: 50)] or arginase [e.g., BCA (SEQ ID NO: 70)] that catalyzes the production of 1 μmol of urea per min under standard assay conditions. The specific activity of the enzyme is expressed as activity units per mg of protein. Under standard diacetylmonoxime (DAMO) assay conditions (37° C., pH 7.4), the fusion proteins can have a specific activity that is about 5%, about 10%, about 15%, about 20%, about 25% about 30%, about 35% or about 40% lower or higher than the corresponding arginase polypeptide which it incorporates. In certain embodiments, fusion proteins can have a specific activity that is about 5% to about 40%, about 10% to about 40%, about 10% to about 35%, about 10% to about 30%, about 20% to about 30%, about 20% to about 35%, about 15% to about 30%, about 15% to about 25%, or about 10% to about 20% lower or higher than the corresponding arginase polypeptide which it incorporates.
One unit of enzyme activity is defined as the amount of enzyme (BCA, BHA or BAH) that catalyzes the production of 1 μmol urea per min under standard assay conditions. Specific activity of the enzyme is expressed as activity units per mg of protein.
Briefly, a serial dilution of 0.3 mL BCA solutions together with 0.15 mL water and 720 mM arginine substrate at pH 7.4 was pre-incubated separately at 37° C. for 10 min. The enzymatic reaction was carried out by adding 0.3 mL arginine substrate to the pre-incubated enzyme solutions. […]
The urea formed from the above reaction was quantified using the DAMO direct colorimetric method described by World Health Organization (WHO). […] The absorbance at 540 nm was measured. […]

[2] = Blood pressure by tail cuff method in DIO mice; type: in vivo; details: 600U at 7-day intervals for 5 weeks
Text: Obesity is associated with cardiovascular disease and hypertension. DIO mice treated with 600U N-ABD094-rhArg (SEQ ID NO: 50) at 7-day intervals for 5 weeks were subjected to measurement of blood pressure by tail cuff method using the CODA Non-invasive Blood Pressure System (Kents Scientific Corporation).

HCT116 = assay: cells; details: HCT116, Day 3
Protocol: (§1) The in vitro efficacy of ABD and rhArg fusion protein was tested on human colon cancer cell lines. Human colon cancer cell lines (HCT116, LOVO and HT29) were seeded in 96-well plate at densities of 5×10^3 cells/well. After 1 day of incubation, the culture medium was replaced with medium containing different concentrations (2, 0.4, 0.08, 0.016 and 0.0032 U/ml) of N-ABD094-rhArg (SEQ ID NO: 50). MTT assay was conducted at Day 3 [3 days after N-ABD094-rhArg (SEQ ID NO: 50) treatment] to determine the IC50 values. The culture medium was replaced with MTT solution (1 mg/ml) (Invitrogen) and incubated at 37° C. for 4 h. After incubation, MTT solution was replaced with dimethyl sulfoxide (DMSO), and the absorbance at 570 nm was measured with a reference of 650 nm. The cell viability was determined by dividing the absorbance of N-ABD094-rhArg-treated cells by the average absorbance of untreated cells. […] Three independent sets of experiments (n=3) were performed for each cell line.
(§2) MTT assay was conducted at Day 3. Three independent sets of experiments (n=3) were performed for each cell line.
(§3) For drug-combination assay, a non-constant ratio analysis was performed (Hastak et al., 2010, Cancer Res. 70(20):7970-7980). Colon cancer cells were seeded and after 1 day of incubation, the culture medium was replaced with medium containing different concentrations of N-ABD094-rhArg (SEQ ID NO: 50) (2, 0.4, 0.08, 0.016, 0.0032 U/ml) combined with fixed amount of CQ according to its IC50. MTT assay was conducted at Day 3. The combination index (CI) of combined N-ABD094-rhArg (SEQ ID NO: 50) and CQ treatment was analyzed by software CalcuSyn version 2.1. Three independent sets of experiments (n=3) were performed for each cell line.

HT29 = assay: cells; details: HT29, Day 3
Protocol: as §1, §2, §3

LOVO = assay: cells; details: LOVO, Day 3
Protocol: as §1, §2, §3

IC50 (HCT116): 0.22 U/ml
IC50 (HT29): 0.58 U/ml
IC50 (LOVO): 0.38 U/ml
B1: N-ABD094-rhArg: albumin binding domain ABD094 fused N-terminally to recombinant human arginase I, SEQ ID NO: 50 (protein)
chain: MHHHHHHDEAVDANSLAEAKEAANAELDSYGVSDFYKRLIDKAKTVEGVEALKDAILAALPSGSNNNNNNGSGGMSAKSRTIGIIGAPFSKGQPRGGVEEGPTVLRKAGLLEKLKEQECDVKDYGDLPFADIPNDSPFQIVKNPRSVGKASEQLAGKVAEVKKNGRISLVLGGDHSLAIGSISGHARVHPDLGVIWVDAHTDINTPLTTTSGNLHGQPVSFLLKELKGKIPDVPGFSWVTPCISAKDIVYIGLRDVDPGEHYILKTLGIKYFSMTEVDRLGIGKVMEETLSYLLGRKKRPIHLSFDVDGLDPSFTPATGTPVVGGLTYREGLYITEEIYKTGLLSGLDIMEVNPSLGKTPEEVTRTVNTAVAITLACFGLAREGNHKPIDYLNPPK
modifications: Mn2+; N-ABD094-rhArg, Synthesized in the Lab
Specific activity [1]: 184 U/mg
systolic and diastolic blood pressure and heart rate vs vehicle-treated DIO mice [2]: significantly lower
